# Reference: article PMC10721474 (Plant Communications, 2023)
# T1: PIN1 (Arabidopsis thaliana, UniProt Q9C6B8)
# T1 sequence (Q9C6B8 1-622): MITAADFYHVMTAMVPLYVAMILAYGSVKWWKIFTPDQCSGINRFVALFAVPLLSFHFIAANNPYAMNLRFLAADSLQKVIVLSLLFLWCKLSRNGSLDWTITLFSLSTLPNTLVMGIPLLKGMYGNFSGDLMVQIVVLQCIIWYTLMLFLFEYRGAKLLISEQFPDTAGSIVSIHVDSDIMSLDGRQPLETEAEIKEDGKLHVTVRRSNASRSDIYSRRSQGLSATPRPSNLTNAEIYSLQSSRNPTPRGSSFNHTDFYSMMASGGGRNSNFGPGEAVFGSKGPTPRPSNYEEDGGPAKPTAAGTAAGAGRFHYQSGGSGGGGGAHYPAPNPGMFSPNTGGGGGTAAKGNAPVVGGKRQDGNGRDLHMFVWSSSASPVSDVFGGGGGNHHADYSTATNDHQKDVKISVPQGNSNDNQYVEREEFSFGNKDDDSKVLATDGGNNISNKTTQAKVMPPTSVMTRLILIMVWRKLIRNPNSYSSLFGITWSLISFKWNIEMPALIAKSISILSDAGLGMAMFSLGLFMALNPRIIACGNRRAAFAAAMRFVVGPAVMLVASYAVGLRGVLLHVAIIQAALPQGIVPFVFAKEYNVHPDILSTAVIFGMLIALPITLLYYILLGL
# T1 sequence (Q9FG74 1-498 partner): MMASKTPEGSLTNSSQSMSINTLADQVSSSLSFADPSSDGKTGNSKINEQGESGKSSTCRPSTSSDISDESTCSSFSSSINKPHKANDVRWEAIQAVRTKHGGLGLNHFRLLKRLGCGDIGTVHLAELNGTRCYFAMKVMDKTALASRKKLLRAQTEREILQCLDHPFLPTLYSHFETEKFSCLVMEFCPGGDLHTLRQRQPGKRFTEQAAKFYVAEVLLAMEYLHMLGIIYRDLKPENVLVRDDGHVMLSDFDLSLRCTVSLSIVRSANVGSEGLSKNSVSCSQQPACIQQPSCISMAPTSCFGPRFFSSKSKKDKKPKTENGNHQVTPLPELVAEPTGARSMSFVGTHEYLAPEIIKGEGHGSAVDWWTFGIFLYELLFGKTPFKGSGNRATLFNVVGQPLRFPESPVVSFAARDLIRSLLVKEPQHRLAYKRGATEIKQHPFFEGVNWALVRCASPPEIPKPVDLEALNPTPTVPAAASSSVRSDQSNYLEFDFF
# B1: synthetic nanobody sybody-19 (VHH)
# VHH: QVQLVESGGGLVQAGGSLRLSCAASGFPVDITWMEWYRQAPGKEREWVAAIYSSGQSTWYADSVKGRFTISRDNAKNTVYLQMNSLKPEDTAVYYCRVKVGAWYKGQGTQVTVSA
# B2: Arabidopsis thaliana PIN-FORMED 1 (PIN1) auxin transporter (natural protein)
# chain: T1 sequence (Q9C6B8 1-622)
# Tests used:
# PIN1 = target: T1, PIN1; assay: [3H]IAA efflux assay in HEK293F cells; format: cell-based
# [1] = target: Arabidopsis thaliana PIN-FORMED 1 (PIN1) auxin transporter (Arabidopsis thaliana, UniProt Q9C6B8); assay: cryo-EM structure
# cryo-EM structure = target: the molecule itself; assay: cryo-EM structure
molecule,measurement,setting,value
"O=C(O)Cc1c[nH]c2ccccc12 [IAA, indole-3-acetic acid]",[3H]IAA efflux assay in HEK293F cells,PIN1,had much lower retention of [^3H]-IAA than cells transfected with the empty vector
B1,binding result,[1],binds
B2,binding result,cryo-EM structure,binds
